According to publication PMC6269424:

Conditions: O-GlcNAc at T84

Substance	expression_or_secretion
PPARγ2: T84A	decreases
PPARγ2: adipocyte-specific OGT knockout (FKO)	decreases
